Assay results published in US20210214447A1 (SHANGHAI INSTITUTE OF MATERIA MEDICA CHINESE ACADEMY OF …, published 2021).

T1: human AXL on the surface of tumor cells (human, UniProt P30530 26-894)
T1 construct: whole, on cells; endogenous protein of human tumor cell lines; the cell line is named under assay or readout; also called AXL on the cell surface
T1 sequence (looked up): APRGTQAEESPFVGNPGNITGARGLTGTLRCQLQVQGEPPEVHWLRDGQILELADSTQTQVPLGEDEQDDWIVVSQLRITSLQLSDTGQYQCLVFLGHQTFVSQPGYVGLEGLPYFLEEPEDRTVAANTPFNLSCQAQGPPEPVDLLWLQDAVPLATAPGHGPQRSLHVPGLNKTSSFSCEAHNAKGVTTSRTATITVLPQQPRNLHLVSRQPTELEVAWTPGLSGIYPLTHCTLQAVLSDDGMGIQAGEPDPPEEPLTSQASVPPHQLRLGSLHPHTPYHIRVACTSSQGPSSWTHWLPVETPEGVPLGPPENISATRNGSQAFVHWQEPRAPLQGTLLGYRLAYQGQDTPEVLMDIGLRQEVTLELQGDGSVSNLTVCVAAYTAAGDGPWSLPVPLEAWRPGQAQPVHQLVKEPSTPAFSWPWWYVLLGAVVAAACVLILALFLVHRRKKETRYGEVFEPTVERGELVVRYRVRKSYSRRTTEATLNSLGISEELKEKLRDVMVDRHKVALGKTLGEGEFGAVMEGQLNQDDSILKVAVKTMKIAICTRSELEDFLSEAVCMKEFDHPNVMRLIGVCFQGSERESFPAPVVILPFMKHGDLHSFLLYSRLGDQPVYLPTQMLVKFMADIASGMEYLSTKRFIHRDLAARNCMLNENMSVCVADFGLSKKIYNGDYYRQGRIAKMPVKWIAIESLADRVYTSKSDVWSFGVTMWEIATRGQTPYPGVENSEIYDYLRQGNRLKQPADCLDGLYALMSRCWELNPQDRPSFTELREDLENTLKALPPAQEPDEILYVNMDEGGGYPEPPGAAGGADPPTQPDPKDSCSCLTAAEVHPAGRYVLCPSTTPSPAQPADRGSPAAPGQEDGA

T2: extracellular domain of human AXL protein (AXL-ECD) (human, UniProt P30530 31-449)
T2 construct: expressed in HEK293T cells; coated on the ELISA plate; also called AXL-ECD protein; human AXL extracellular domain protein
T2 sequence: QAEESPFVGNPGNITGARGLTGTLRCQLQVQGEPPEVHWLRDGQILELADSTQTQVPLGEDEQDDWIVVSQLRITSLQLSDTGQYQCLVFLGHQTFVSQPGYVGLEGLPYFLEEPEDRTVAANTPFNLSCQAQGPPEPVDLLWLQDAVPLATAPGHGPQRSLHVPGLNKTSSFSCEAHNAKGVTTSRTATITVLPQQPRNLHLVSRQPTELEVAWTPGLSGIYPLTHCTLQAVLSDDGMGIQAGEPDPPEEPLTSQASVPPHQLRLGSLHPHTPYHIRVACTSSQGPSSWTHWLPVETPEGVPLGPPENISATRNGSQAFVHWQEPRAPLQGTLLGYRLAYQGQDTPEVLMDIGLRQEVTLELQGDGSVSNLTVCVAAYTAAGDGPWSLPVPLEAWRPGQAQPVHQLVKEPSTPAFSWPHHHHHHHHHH


How the values were obtained:
[1] = biological target: T1, human AXL on the surface of tumor cells; assay: FACS on MDA-MB-231 cells
Method: (§1) Then the obtained solutions were incubated at 4° C. for 1 h, the cells were washed twice with PBS to remove unbound primary antibody, and then the target cells were incubated with 200 μL PE-labeled secondary antibody (2 μg/mL) at 4° C. for 30 min. The cells were washed twice with PBS to remove unbound secondary antibody. Finally, the cells were resuspended in 200 μL PBS, and the binding affinity of the test antibody to AXL on the cell surface was determined by a flow cytometer (FACSCalibur)
24 humanized antibodies in Table-6 were diluted by gradient, and their affinities to AXL, on the surface of MDA-MB-231 cells were determined by flow cytometer. The experimental method was referred to Example 8.

[2] = biological target: T1, human AXL on the surface of tumor cells; assay: FACS on LCLC-103H cells
Method: as §1
The experimental method was referred to Example 8.

[3] = biological target: T2, extracellular domain of human AXL …; assay: ELISA, plate-coated AXL-ECD
Method: The extracellular domain of AXL protein (AXL-ECD) was diluted to […] with the coating solution, and coated onto ELISA plate with 100 μL/well at 4° C. overnight. The excess antigen was washed off. The plate was blocked with 1% BSA at room temperature for 2 h, then each monoclonal antibody in a 3-fold dilution was added at 100 µL/well. The plate was incubated at room temperature for 1 h; the unbound antibody was washed off, and appropriate concentration of anti-mouse secondary antibody labeled with horseradish peroxidase was added at 100 µL/well. The plate was incubated at room temperature for 0.5 h. The unbound secondary antibody was washed off. TMB Substrate was added and reacted for about 15 minutes. 1N HCL was added at 50 µL/well to stop the color reaction. Then the absorbance was measured at 450 nm and the obtained data was analyzed.
24 humanized antibodies in Table-6 were diluted by gradient, and their affinity to AXL-ECD protein was determined by ELISA. The experimental method was referred to Example 4.

Binder	EC50 [1]	Highest MFI value (FACSCalibur) [1]	EC50 [2]	EC50 [3]	TOP (OD450) [3]
Hu002-5 (antibody, V domains shown, humanized from mAb002c; also called Hu002c-5) VH: QVQLVQSGAEVKKPGASVKVSCKASGYPFTDFYINWVRQAPGQGLEWMGWIYPGSGNTKYNEKFKGRVTLTVDTSISTAYMELSRLRSDDTAVYYCARSTGFFDYWGQGTLVTVSS VL: EIVLTQSPATLSLSPGERATLSCSASSSIGYMYWYQQKPGQAPRLLIYLTSNLASGIPARFSGSGSGTDYTLTISSLEPEDFAVYYCQQWSSNPPTFGQGTKLEIK	0.114 nM	275 MFI	0.36 nM	0.05 nM	3.59 OD450
Hu002-21 (antibody, V domains shown, humanized from mAb002c; also called Hu002c-21) VH: QVQLVQSGAEVKKPGASVKVSCKASGYPFTDFYINWVKQAPGQGLEWIGWIYPGSGNTKYNEKFKGRVTLTVDTSISTAYMELSRLRSDDTAVYYCARSTGFFDYWGQGTLVTVSS VL: EIVLTQSPDFQSVTPKEKVTITCSASSSIGYMYWYQQKPDQSPKSLIYLTSNLASGVPSRFSGSGSGTDYTLTINSLEAEDAATYYCQQWSSNPPTFGQGTKLEIK	0.132 nM	273 MFI		0.046 nM	3.71 OD450
Hu002-16 (antibody, V domains shown, humanized from mAb002c; also called Hu002c-16) VH: QVQLVQSGAEVKKPGASVKVSCKASGYPFTDFYINWVRQAPGQGLEWMGWIYPGSGNTKYNEKFKGRVTMTRDTSISTAYMELSRLRSDDTAVYYCARSTGFFDYWGQGTLVTVSS VL: EIVLTQSPDFQSVTPKEKVTITCSASSSIGYMYWYQQKPDQSPKLLIYLTSNLASGVPSRFSGSGSGTDYTLTINSLEAEDAATYYCQQWSSNPPTFGQGTKLEIK	0.082 nM	282 MFI		0.047 nM	3.76 OD450
Hu002-22 (antibody, V domains shown, humanized from mAb002c; also called Hu002c-22) VH: QVQLVQSGAEVKKPGASVKVSCKASGYPFTDFYINWVRQAPGQGLEWMGWIYPGSGNTKYNEKFKGRVTMTRDTSISTAYMELSRLRSDDTAVYYCARSTGFFDYWGQGTLVTVSS VL: QIVLTQSPDFQSVTPKEKVTITCSASSSIGYMYWYQQKPDQSPKSLIYLTSNLASGVPSRFSGSGSGTDYTLTINSLEAEDAATYYCQQWSSNPPTFGQGTKLEIK	0.134 nM	276 MFI		0.059 nM	3.67 OD450
Hu002-18 (antibody, V domains shown, humanized from mAb002c; also called Hu002c-18) VH: QVQLVQSGAEVKKPGASVKVSCKASGYPFTDFYINWVKQAPGQGLEWIGWIYPGSGNTKYNEKFKGRVTLTVDTSISTAYMELSRLRSDDTAVYYCARSTGFFDYWGQGTLVTVSS VL: EIVLTQSPDFQSVTPKEKVTITCSASSSIGYMYWYQQKPDQSPKLLIYLTSNLASGVPSRFSGSGSGTDYTLTINSLEAEDAATYYCQQWSSNPPTFGQGTKLEIK	0.111 nM	277 MFI		0.055 nM	3.71 OD450
Hu002-1 (antibody, V domains shown, humanized from mAb002c; also called Hu002c-1) VH: QVQLVQSGAEVKKPGASVKVSCKASGYPFTDFYINWVRQAPGQGLEWMGWIYPGSGNTKYNEKFKGRVTMTRDTSISTAYMELSRLRSDDTAVYYCARSTGFFDYWGQGTLVTVSS VL: EIVLTQSPATLSLSPGERATLSCSASSSIGYMYWYQQKPGQAPRLLIYLTSNLASGIPARFSGSGSGTDFTLTISSLEPEDFAVYYCQQWSSNPPTFGQGTKLEIK	0.101 nM	277 MFI	0.28 nM	0.07 nM	3.62 OD450
Hu002-19 (antibody, V domains shown, humanized from mAb002c; also called Hu002c-19) VH: QVQLVQSGAEVKKPGASVKVSCKASGYPFTDFYINWVRQAPGQGLEWMGWIYPGSGNTKYNEKFKGRVTMTRDTSISTAYMELSRLRSDDTAVYYCARSTGFFDYWGQGTLVTVSS VL: EIVLTQSPDFQSVTPKEKVTITCSASSSIGYMYWYQQKPDQSPKSLIYLTSNLASGVPSRFSGSGSGTDYTLTINSLEAEDAATYYCQQWSSNPPTFGQGTKLEIK	0.121 nM	278 MFI		0.059 nM	3.73 OD450
Hu002-20 (antibody, V domains shown, humanized from mAb002c; also called Hu002c-20) VH: QVQLVQSGAEVKKPGASVKVSCKASGYPFTDFYINWVRQAPGQGLEWMGWIYPGSGNTKYNEKFKGRVTLTVDTSISTAYMELSRLRSDDTAVYYCARSTGFFDYWGQGTLVTVSS VL: EIVLTQSPDFQSVTPKEKVTITCSASSSIGYMYWYQQKPDQSPKSLIYLTSNLASGVPSRFSGSGSGTDYTLTINSLEAEDAATYYCQQWSSNPPTFGQGTKLEIK	0.099 nM	277 MFI		0.054 nM	3.71 OD450
Hu002-24 (antibody, V domains shown, humanized from mAb002c; also called Hu002c-24) VH: QVQLVQSGAEVKKPGASVKVSCKASGYPFTDFYINWVKQAPGQGLEWIGWIYPGSGNTKYNEKFKGRVTLTVDTSISTAYMELSRLRSDDTAVYYCARSTGFFDYWGQGTLVTVSS VL: QIVLTQSPDFQSVTPKEKVTITCSASSSIGYMYWYQQKPDQSPKSLIYLTSNLASGVPSRFSGSGSGTDYTLTINSLEAEDAATYYCQQWSSNPPTFGQGTKLEIK	0.098 nM	262 MFI		0.051 nM	3.65 OD450
Hu002-15 (antibody, V domains shown, humanized from mAb002c; also called Hu002c-15) VH: QVQLVQSGAEVKKPGASVKVSCKASGYPFTDFYINWVKQAPGQGLEWIGWIYPGSGNTKYNEKFKGRVTLTVDTSISTAYMELSRLRSDDTAVYYCARSTGFFDYWGQGTLVTVSS VL: EIVLTQSPDFQSVTPKEKVTITCSASSSIGYMYWYQQKPDQSPKLLIKLTSNLASGVPSRFSGSGSGTDFTLTINSLEAEDAATYYCQQWSSNPPTFGQGTKLEIK	0.099 nM	268 MFI		0.05 nM	3.72 OD450
Hu002-23 (antibody, V domains shown, humanized from mAb002c; also called Hu002c-23) VH: QVQLVQSGAEVKKPGASVKVSCKASGYPFTDFYINWVRQAPGQGLEWMGWIYPGSGNTKYNEKFKGRVTLTVDTSISTAYMELSRLRSDDTAVYYCARSTGFFDYWGQGTLVTVSS VL: QIVLTQSPDFQSVTPKEKVTITCSASSSIGYMYWYQQKPDQSPKSLIYLTSNLASGVPSRFSGSGSGTDYTLTINSLEAEDAATYYCQQWSSNPPTFGQGTKLEIK	0.098 nM	276 MFI		0.057 nM	3.69 OD450
